What was measured:
[1] = glutaraldehyde crosslinking, WB; tetramer fraction after EGF; conditions: glycan lost; control: Flag-PKM2 WT, EGF-treated
[2] = colorimetric PK activity of immunoprecipitated PKM2 after EGF; conditions: glycan lost; control: Flag-PKM2 WT, EGF-treated
[3] = target: pyruvate kinase M2 (PKM2), endogenous (human (endogenous in A549)) (UniProt P14618); assay: cross-linking; whole cell lysates (4 mg/ml) cross-linked with 0.025% glutaraldehyde for 3 min at 37 °C, stopped with Tris-HCl pH 8.0, WB; cells with or without EGF (100 ng/ml, 1 h), with or without transfected OGT variants
[4] = target: Flag-tagged PKM2^WT (pyruvate kinase M2) (human) (UniProt P14618); assay: as above

Substance: Pyruvate kinase M2 (PKM2): T405A/S406A
- oligomerisation [1]: increases
- enzymatic_activity [2]: increases

Substance: pyruvate kinase M2 (PKM2), endogenous, P14618 1-531 (enzyme; other documents disagree on this pair)
- stoichiometry N [3]: 2

Substance: Flag-tagged PKM2^WT (pyruvate kinase M2), P14618 1-531 (enzyme; other documents disagree on this pair)
- stoichiometry N [4]: 2
